Biological target: T1, HLA-A*03:01 (human)
T1 construct: MHC class I monomer first loaded with a UV-sensitive peptide that is cleaved by UV irradiation and exchanged for the test peptide; captured on streptavidin plates; also called peptide-receptive MHC molecules
Test: UV-ligand exchange, anti-b2m ELISA; peptide exchange yield grade (>10% +, >20% ++, >50% +++, >75% ++++)
Excerpt: Candidate peptides for T cell based therapies according to the present invention were further tested for their MHC binding capacity (affinity). The individual peptide-MHC complexes were produced by UV-ligand exchange, where a UV-sensitive peptide is cleaved upon UV-irradiation and exchanged with the peptide of interest as analyzed. Only peptide candidates that can effectively bind and stabilize the peptide-receptive MHC molecules prevent dissociation of the MHC complexes. To determine the yield of the exchange reaction, an ELISA was performed based on the detection of the light chain (β2m) of stabilized MHC complexes. The assay was performed as generally described in Rodenko et al. (Rodenko et al., 2006)
96 well MAXISorp plates (NUNC) were coated over night with 2 ug/ml streptavidin in PBS at room temperature, washed 4× and blocked forl h at 37° C. in 2% BSA containing blocking buffer. Refolded HLA-A*02:01/MLA-001 monomers served as standards, covering the range of 15-500 ng/ml. Peptide-MHC monomers of the UV-exchange reaction were diluted 100-fold in blocking buffer. Samples were incubated for 1 h at 37° C., washed four times, incubated with 2 ug/ml HRP conjugated anti-β2m for 1 h at 37° C., washed again and detected with TMB solution that is stopped with […]. Absorption was measured at 450 nm.

B1: RLPLRVVKH (peptide)
peptide: RLPLRVVKH
- peptide exchange yield: > 75%

B2: AVAQKLLSH (peptide)
peptide: AVAQKLLSH
- peptide exchange yield: > 75%

B3: KLFTSVFGVGLK (peptide)
peptide: KLFTSVFGVGLK
- peptide exchange yield: > 75%

B4: RLKMAQESVSK (peptide)
peptide: RLKMAQESVSK
- peptide exchange yield: > 75%

B5: GISNPITTSK (peptide)
peptide: GISNPITTSK
- peptide exchange yield: > 75%

B6: IVAFIPLSNK (peptide)
peptide: IVAFIPLSNK
- peptide exchange yield: > 75%

B7: RVYEGDGRNSLK (peptide)
peptide: RVYEGDGRNSLK
- peptide exchange yield: 50 to 75%

B8: IVYPSATDKTK (peptide)
peptide: IVYPSATDKTK
- peptide exchange yield: 50 to 75%

B9: ALERKFRQK (peptide)
peptide: ALERKFRQK
- peptide exchange yield: > 75%

B10: RVYPRPPSK (peptide)
peptide: RVYPRPPSK
- peptide exchange yield: > 75%

B11: RLAVSTRGK (peptide)
peptide: RLAVSTRGK
- peptide exchange yield: > 75%

B12: KVYIPPIINK (peptide)
peptide: KVYIPPIINK
- peptide exchange yield: > 75%

B13: AISSTVLGK (peptide)
peptide: AISSTVLGK
- peptide exchange yield: > 75%

B14: LLPTVLIKK (peptide)
peptide: LLPTVLIKK
- peptide exchange yield: 50 to 75%

B15: KLETGVVKK (peptide)
peptide: KLETGVVKK
- peptide exchange yield: > 75%

B16: RLYEMILQR (peptide)
peptide: RLYEMILQR
- peptide exchange yield: > 75%

B17: KLQAKVLQY (peptide)
peptide: KLQAKVLQY
- peptide exchange yield: > 75%

B18: SGSTLECILYK (peptide)
peptide: SGSTLECILYK
- peptide exchange yield: > 75%

B19: VAFIPLSNK (peptide)
peptide: VAFIPLSNK
- peptide exchange yield: > 75%

B20: SLYDGFLSY (peptide)
peptide: SLYDGFLSY
- peptide exchange yield: > 75%

B21: RSKWSNVFK (peptide)
peptide: RSKWSNVFK
- peptide exchange yield: > 75%

B22: SIINFKPLTY (peptide)
peptide: SIINFKPLTY
- peptide exchange yield: 50 to 75%

B23: RSYVPLAH (peptide)
peptide: RSYVPLAH
- peptide exchange yield: > 75%

B24: ALAAKLEVK (peptide)
peptide: ALAAKLEVK
- peptide exchange yield: > 75%

B25: STLECILYK (peptide)
peptide: STLECILYK
- peptide exchange yield: > 75%

B26: TMWQIPQEFVK (peptide)
peptide: TMWQIPQEFVK
- peptide exchange yield: > 75%

B27: KIWQNLRLK (peptide)
peptide: KIWQNLRLK
- peptide exchange yield: 50 to 75%

B28: RLFPGLYLGY (peptide)
peptide: RLFPGLYLGY
- peptide exchange yield: 50 to 75%

B29: KIFQGQINK (peptide)
peptide: KIFQGQINK
- peptide exchange yield: > 75%

B30: SLYNLGGAK (peptide)
peptide: SLYNLGGAK
- peptide exchange yield: > 75%

B31: EGLFLLGCVK (peptide)
peptide: EGLFLLGCVK
- peptide exchange yield: 50 to 75%

B32: RLSPGPRAY (peptide)
peptide: RLSPGPRAY
- peptide exchange yield: 50 to 75%

B33: RLYYSFKNITK (peptide)
peptide: RLYYSFKNITK
- peptide exchange yield: > 75%

B34: RVWLGKHYK (peptide)
peptide: RVWLGKHYK
- peptide exchange yield: > 75%

B35: QICLPAIYK (peptide)
peptide: QICLPAIYK
- peptide exchange yield: > 75%

B36: ALPRQAFHSK (peptide)
peptide: ALPRQAFHSK
- peptide exchange yield: > 75%

B37: KVADFGLARLLK (peptide)
peptide: KVADFGLARLLK
- peptide exchange yield: > 75%

B38: SSLAELIAK (peptide)
peptide: SSLAELIAK
- peptide exchange yield: 20 to 50%

B39: KILDRVLSRY (peptide)
peptide: KILDRVLSRY
- peptide exchange yield: > 75%

B40: AVCGGVLVH (peptide)
peptide: AVCGGVLVH
- peptide exchange yield: > 75%

B41: KTGWFTLLY (peptide)
peptide: KTGWFTLLY
- peptide exchange yield: > 75%

B42: RVLPPLTRILK (peptide)
peptide: RVLPPLTRILK
- peptide exchange yield: > 75%

B43: KTWAHCMSY (peptide)
peptide: KTWAHCMSY
- peptide exchange yield: > 75%

B44: RSYSHVVLK (peptide)
peptide: RSYSHVVLK
- peptide exchange yield: > 75%

B45: KLSLSHKK (peptide)
peptide: KLSLSHKK
- peptide exchange yield: 50 to 75%

B46: RVYPRPPSKTY (peptide)
peptide: RVYPRPPSKTY
- peptide exchange yield: > 75%

B47: RVAEEILIK (peptide)
peptide: RVAEEILIK
- peptide exchange yield: 50 to 75%

B48: RVSSVKLISK (peptide)
peptide: RVSSVKLISK
- peptide exchange yield: 50 to 75%

B49: KVMPKQTWK (peptide)
peptide: KVMPKQTWK
- peptide exchange yield: 50 to 75%

B50: KLYPTHACR (peptide)
peptide: KLYPTHACR
- peptide exchange yield: > 75%

B51: QLGYQAAVLK (peptide)
peptide: QLGYQAAVLK
- peptide exchange yield: 50 to 75%

B52: RIVDYLLEK (peptide)
peptide: RIVDYLLEK
- peptide exchange yield: > 75%

B53: AVYNYPEGAAY (peptide)
peptide: AVYNYPEGAAY
- peptide exchange yield: > 75%

B54: RSNPYFQNK (peptide)
peptide: RSNPYFQNK
- peptide exchange yield: > 75%

B55: KAFNQSSIFTK (peptide)
peptide: KAFNQSSIFTK
- peptide exchange yield: 50 to 75%

B56: IVFPDVISK (peptide)
peptide: IVFPDVISK
- peptide exchange yield: > 75%

B57: KVFEEPEDFLK (peptide)
peptide: KVFEEPEDFLK
- peptide exchange yield: 20 to 50%

B58: KVLEPPLGAR (peptide)
peptide: KVLEPPLGAR
- peptide exchange yield: 50 to 75%

B59: KVLSILSRLK (peptide)
peptide: KVLSILSRLK
- peptide exchange yield: 50 to 75%

B60: SSLPRAFQK (peptide)
peptide: SSLPRAFQK
- peptide exchange yield: 20 to 50%

B61: QVRDTLKIVFK (peptide)
peptide: QVRDTLKIVFK
- peptide exchange yield: 50 to 75%

B62: AVIGALLAVGATK (peptide)
peptide: AVIGALLAVGATK
- peptide exchange yield: 50 to 75%

B63: KTCQVSGLLY (peptide)
peptide: KTCQVSGLLY
- peptide exchange yield: > 75%

B64: SVLDKLLFH (peptide)
peptide: SVLDKLLFH
- peptide exchange yield: > 75%

B65: RTIDRSVFK (peptide)
peptide: RTIDRSVFK
- peptide exchange yield: > 75%

B66: ILDSSLLK (peptide)
peptide: ILDSSLLK
- peptide exchange yield: 20 to 50%

B67: VSLGTPIMK (peptide)
peptide: VSLGTPIMK
- peptide exchange yield: 50 to 75%

Source: US20200000897A1 (published 2020)
